Assay results reported in publication PMC3150435 (Nature structural & molecular biology, 2011).

Legend:
[1] = biological target: Plasmodium vivax Duffy-Binding Protein region II (RII-PvDBP), amino acids 211-525 (Plasmodium vivax) (UniProt P22290); experiment: AUC
[2] = biological target: Plasmodium vivax Duffy-Binding Protein region II (RII-PvDBP), amino acids 211-525 (Plasmodium vivax, UniProt P22290 211-525); experiment: ITC
Chain of Plasmodium vivax Duffy-Binding Protein region II (RII-PvDBP), amino acids 211-525 (P22290 211-525): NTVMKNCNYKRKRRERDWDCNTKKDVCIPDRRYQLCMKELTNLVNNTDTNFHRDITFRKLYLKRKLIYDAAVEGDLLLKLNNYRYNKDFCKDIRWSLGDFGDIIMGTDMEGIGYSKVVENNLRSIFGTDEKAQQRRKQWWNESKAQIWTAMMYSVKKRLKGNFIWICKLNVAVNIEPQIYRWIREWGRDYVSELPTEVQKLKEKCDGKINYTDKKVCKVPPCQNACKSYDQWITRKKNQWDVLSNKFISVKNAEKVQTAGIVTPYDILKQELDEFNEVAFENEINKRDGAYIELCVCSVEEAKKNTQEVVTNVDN

Plasmodium vivax Duffy-Binding Protein region II (RII-PvDBP), amino acids 211-525 (from UniProt P22290 211-525) (domain or fragment)
stoichiometry N [1]: 2

B1: DARC1-60 (N-terminal 60 amino acids of Duffy Antigen/Receptor for Chemokines) with C4A, C51A and C54A, unsulfated (domain or fragment, UniProt Q16570 1-60, looked up)
chain: MGNALHRAELSPSTENSSQLDFEDVWNSSYGVNDSFPDGDYGANLEAAAPAHSANLLDDS
stoichiometry N [2]: 1
